Assay results: patent US20140256041A1

Molecular target: Human GPR49 (LGR5), full length, on cells (human) (UniProt O75473)
Assay: cell-based or functional assay

Chain of Human GPR49 (LGR5), full length, on cells (human) (O75473 22-907 limits assumed): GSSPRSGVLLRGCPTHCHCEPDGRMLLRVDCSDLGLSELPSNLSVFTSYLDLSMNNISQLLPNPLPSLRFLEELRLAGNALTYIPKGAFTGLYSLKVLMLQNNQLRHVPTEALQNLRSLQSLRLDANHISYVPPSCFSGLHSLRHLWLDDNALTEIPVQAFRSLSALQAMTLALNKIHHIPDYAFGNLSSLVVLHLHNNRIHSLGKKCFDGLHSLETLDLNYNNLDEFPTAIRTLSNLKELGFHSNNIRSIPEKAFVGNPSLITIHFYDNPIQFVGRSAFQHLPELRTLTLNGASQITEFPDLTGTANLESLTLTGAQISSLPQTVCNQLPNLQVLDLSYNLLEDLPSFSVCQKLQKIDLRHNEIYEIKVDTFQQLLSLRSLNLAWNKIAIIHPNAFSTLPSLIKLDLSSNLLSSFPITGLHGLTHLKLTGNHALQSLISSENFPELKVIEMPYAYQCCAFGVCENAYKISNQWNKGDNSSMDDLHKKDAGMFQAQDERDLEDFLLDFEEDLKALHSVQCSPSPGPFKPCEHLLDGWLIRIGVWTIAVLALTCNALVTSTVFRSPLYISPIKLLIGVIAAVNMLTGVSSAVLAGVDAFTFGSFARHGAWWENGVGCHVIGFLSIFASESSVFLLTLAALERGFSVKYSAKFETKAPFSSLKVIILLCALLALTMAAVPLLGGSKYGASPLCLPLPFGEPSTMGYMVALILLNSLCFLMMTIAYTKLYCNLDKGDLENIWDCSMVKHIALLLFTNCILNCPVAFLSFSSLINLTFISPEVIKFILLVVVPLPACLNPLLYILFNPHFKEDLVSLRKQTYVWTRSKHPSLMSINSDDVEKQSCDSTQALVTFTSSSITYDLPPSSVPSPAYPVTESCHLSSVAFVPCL

increase in proliferation, GPR49-3T3 clone 28: 4 fold
Substance: R-spondin 1 (ligand)
